In patent US20110118177:

Assays:
[1] = system: bovine casein (Hammersten-grade) (Merck, Darmstadt, Germany)
[2] = biological target: bovine serum albumin (BSA) (Roth, Karlsruhe, Germany) (UniProt P02769)
[3] = system: cyanophycin (multi-L-arginyl-poly-[L-aspartic acid]), Cyanophycin Granule Polypeptide

bovine serum albumin (BSA) (Roth, Karlsruhe, Germany), sequence (P02769 25-607): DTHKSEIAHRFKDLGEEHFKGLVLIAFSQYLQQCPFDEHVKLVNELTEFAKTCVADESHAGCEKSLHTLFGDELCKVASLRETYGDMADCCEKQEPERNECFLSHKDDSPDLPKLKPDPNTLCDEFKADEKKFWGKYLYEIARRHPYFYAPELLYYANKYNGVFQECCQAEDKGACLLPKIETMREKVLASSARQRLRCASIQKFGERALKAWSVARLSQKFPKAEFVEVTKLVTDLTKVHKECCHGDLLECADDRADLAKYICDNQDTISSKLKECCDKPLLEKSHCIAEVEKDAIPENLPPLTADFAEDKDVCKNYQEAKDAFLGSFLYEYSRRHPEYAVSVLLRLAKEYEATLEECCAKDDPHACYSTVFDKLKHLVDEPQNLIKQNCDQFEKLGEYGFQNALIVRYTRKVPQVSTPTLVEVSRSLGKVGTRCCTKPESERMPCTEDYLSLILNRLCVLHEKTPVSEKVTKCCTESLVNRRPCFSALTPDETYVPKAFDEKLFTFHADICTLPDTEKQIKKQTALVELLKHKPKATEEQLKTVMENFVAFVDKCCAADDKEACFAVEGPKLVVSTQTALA

extracellular cyanophycinase (CGPase) CphEal from Pseudomonas alcaligenes strain DIP1
degradation (substrate specificity test) [1]: Bovine casein and poly(aspartic acid) were minimally affected by the enzymatic activity of the purified CphEal
degradation (in comparison to CGP) [2]: also BSA was partially degraded (65% in comparison to CGP)
degradation activity (substrate specificity test) [3]: showed the highest degradation activity on CGP
